This is an account of results in the Human Domainome abundance scans (Beltran et al. 2025).

B1: TGF-beta-activated kinase 1 and MAP3K7-binding protein 3, residues 12 to 50; numbered along this chain, Q8N5C8 (parent)
chain: VLHDLRQRFPEIPEGVVSQCMLQNNNNLEACCRALSQES

± gives the uncertainty stated by the source.

Variants of B1 are the subject of this data set. Kind of data set: abundance fitness (aPCA) (normalised: wild type 0, dead -1); higher = more abundant; growth selection in yeast, the domain comes from the species named. As to conditions: Homo sapiens.
For the variant VLHDLRWRFPEIPEGVVSQCMLQNNNNLEACCRALSQES [Q7W], the abundance fitness was -1.08 ± 0.16.
In the case of VLHDLRSRFPEIPEGVVSQCMLQNNNNLEACCRALSQES [Q7S], the abundance fitness came to 0.026 ± 0.061.
With VLHDLRPRFPEIPEGVVSQCMLQNNNNLEACCRALSQES [Q7P], the abundance fitness was -1.02 ± 0.17.
On to VLHDLRGRFPEIPEGVVSQCMLQNNNNLEACCRALSQES [Q7G], for which the abundance fitness was -0.413 ± 0.042.
For VLHDLRDRFPEIPEGVVSQCMLQNNNNLEACCRALSQES [Q7D], the abundance fitness is -0.083 ± 0.1.
Under VLHDLRCRFPEIPEGVVSQCMLQNNNNLEACCRALSQES [Q7C] stands -0.658 ± 0.14; under VLHDLRNRFPEIPEGVVSQCMLQNNNNLEACCRALSQES [Q7N], -0.225 ± 0.062.
In the case of VLHDLRFRFPEIPEGVVSQCMLQNNNNLEACCRALSQES [Q7F], the abundance fitness is -0.634 ± 0.1.
Under VLHDLRIRFPEIPEGVVSQCMLQNNNNLEACCRALSQES [Q7I] stands -0.077 ± 0.07; under VLHDLRKRFPEIPEGVVSQCMLQNNNNLEACCRALSQES [Q7K], 0.003 ± 0.12; under VLHDLRTRFPEIPEGVVSQCMLQNNNNLEACCRALSQES [Q7T], -0.089 ± 0.052.
VLHDLRERFPEIPEGVVSQCMLQNNNNLEACCRALSQES [Q7E]: the abundance fitness was determined as 0.072 ± 0.046.
Consider VLHDLRVRFPEIPEGVVSQCMLQNNNNLEACCRALSQES [Q7V], for which the abundance fitness is -0.135 ± 0.047.
In the case of VLHDLRRRFPEIPEGVVSQCMLQNNNNLEACCRALSQES [Q7R], the abundance fitness was 0.103 ± 0.038.
Consider VLHDLRMRFPEIPEGVVSQCMLQNNNNLEACCRALSQES [Q7M], for which the abundance fitness came out at 0.064 ± 0.064.
With VLHRLRQRFPEIPEGVVSQCMLQNNNNLEACCRALSQES [D4R], the abundance fitness is -0.112 ± 0.038.
On to VLHVLRQRFPEIPEGVVSQCMLQNNNNLEACCRALSQES [D4V], for which the abundance fitness is 0.127 ± 0.043.
On to VLHWLRQRFPEIPEGVVSQCMLQNNNNLEACCRALSQES [D4W], for which the abundance fitness stood at 0.017 ± 0.049.
On to VLHELRQRFPEIPEGVVSQCMLQNNNNLEACCRALSQES [D4E], for which the abundance fitness was determined as 0.248 ± 0.045.
Turning to VLHPLRQRFPEIPEGVVSQCMLQNNNNLEACCRALSQES [D4P], the abundance fitness is -0.838 ± 0.14.
As for VLHSLRQRFPEIPEGVVSQCMLQNNNNLEACCRALSQES [D4S], the abundance fitness was -0.118 ± 0.042.
In the case of VLHQLRQRFPEIPEGVVSQCMLQNNNNLEACCRALSQES [D4Q], the abundance fitness was found to be 0.167 ± 0.052.
Under VLHMLRQRFPEIPEGVVSQCMLQNNNNLEACCRALSQES [D4M] stands -0.039 ± 0.14; under VLHLLRQRFPEIPEGVVSQCMLQNNNNLEACCRALSQES [D4L], 0.116 ± 0.045.
Consider VLHKLRQRFPEIPEGVVSQCMLQNNNNLEACCRALSQES [D4K], for which the abundance fitness came to 0.109 ± 0.049.
VLHFLRQRFPEIPEGVVSQCMLQNNNNLEACCRALSQES [D4F]: the abundance fitness turned out to be 0.164 ± 0.097.
Under VLHCLRQRFPEIPEGVVSQCMLQNNNNLEACCRALSQES [D4C] stands -0.053 ± 0.054; under VLHYLRQRFPEIPEGVVSQCMLQNNNNLEACCRALSQES [D4Y], -0.054 ± 0.18; under VLHTLRQRFPEIPEGVVSQCMLQNNNNLEACCRALSQES [D4T], 0.02 ± 0.048.
Under VLHALRQRFPEIPEGVVSQCMLQNNNNLEACCRALSQES [D4A] stands 0.013 ± 0.051; under VLHNLRQRFPEIPEGVVSQCMLQNNNNLEACCRALSQES [D4N], -0.075 ± 0.068; under VLHGLRQRFPEIPEGVVSQCMLQNNNNLEACCRALSQES [D4G], -0.676 ± 0.055.
As for VLGDLRQRFPEIPEGVVSQCMLQNNNNLEACCRALSQES [H3G], the abundance fitness was -0.078 ± 0.043.
VLSDLRQRFPEIPEGVVSQCMLQNNNNLEACCRALSQES [H3S]: the abundance fitness turned out to be 0.066 ± 0.059.
Under VLDDLRQRFPEIPEGVVSQCMLQNNNNLEACCRALSQES [H3D] stands -0.066 ± 0.094; under VLFDLRQRFPEIPEGVVSQCMLQNNNNLEACCRALSQES [H3F], -0.342 ± 0.13.
As to VLNDLRQRFPEIPEGVVSQCMLQNNNNLEACCRALSQES [H3N], the abundance fitness was -0.14 ± 0.24.
On to VLVDLRQRFPEIPEGVVSQCMLQNNNNLEACCRALSQES [H3V], for which the abundance fitness is -0.331 ± 0.049.
Consider VLEDLRQRFPEIPEGVVSQCMLQNNNNLEACCRALSQES [H3E], for which the abundance fitness is 0.201 ± 0.046.
Under VLTDLRQRFPEIPEGVVSQCMLQNNNNLEACCRALSQES [H3T] stands -0.019 ± 0.045; under VLRDLRQRFPEIPEGVVSQCMLQNNNNLEACCRALSQES [H3R], 0.088 ± 0.045; under VLPDLRQRFPEIPEGVVSQCMLQNNNNLEACCRALSQES [H3P], -0.483 ± 0.061.
With VLQDLRQRFPEIPEGVVSQCMLQNNNNLEACCRALSQES [H3Q], the abundance fitness turned out to be 0.266 ± 0.047.
On to VLMDLRQRFPEIPEGVVSQCMLQNNNNLEACCRALSQES [H3M], for which the abundance fitness was -0.023 ± 0.059.
Take VLKDLRQRFPEIPEGVVSQCMLQNNNNLEACCRALSQES [H3K]: the abundance fitness was found to be 0.09 ± 0.06.
On to VLCDLRQRFPEIPEGVVSQCMLQNNNNLEACCRALSQES [H3C], for which the abundance fitness was -0.191 ± 0.083.
Turning to VLYDLRQRFPEIPEGVVSQCMLQNNNNLEACCRALSQES [H3Y], the abundance fitness was -0.391 ± 0.18.
VLIDLRQRFPEIPEGVVSQCMLQNNNNLEACCRALSQES [H3I]: the abundance fitness is -0.096 ± 0.18.
In the case of VLHDLRQRDPEIPEGVVSQCMLQNNNNLEACCRALSQES [F9D], the abundance fitness is -0.616 ± 0.16.
Under VLHDLRQRGPEIPEGVVSQCMLQNNNNLEACCRALSQES [F9G] stands -0.818 ± 0.061; under VLHDLRQRLPEIPEGVVSQCMLQNNNNLEACCRALSQES [F9L], -0.935 ± 0.093.
For VLHDLRQRVPEIPEGVVSQCMLQNNNNLEACCRALSQES [F9V], the abundance fitness is -0.865 ± 0.087.
With VLHDLRQRSPEIPEGVVSQCMLQNNNNLEACCRALSQES [F9S], the abundance fitness was -0.597 ± 0.096.
VLHDLRQRWPEIPEGVVSQCMLQNNNNLEACCRALSQES [F9W]: the abundance fitness is -0.964 ± 0.16.
Consider VLHDLRQREPEIPEGVVSQCMLQNNNNLEACCRALSQES [F9E], for which the abundance fitness was -0.682 ± 0.057.
Take VLHDLRQRCPEIPEGVVSQCMLQNNNNLEACCRALSQES [F9C]: the abundance fitness was -0.65 ± 0.067.
For VLHDLRQRMPEIPEGVVSQCMLQNNNNLEACCRALSQES [F9M], the abundance fitness is -0.428 ± 0.092.
As for VLHDLRQRNPEIPEGVVSQCMLQNNNNLEACCRALSQES [F9N], the abundance fitness was -0.559 ± 0.17.
Regarding VLHDLRQRTPEIPEGVVSQCMLQNNNNLEACCRALSQES [F9T], the abundance fitness was -0.798 ± 0.15.
On to VLHDLRQRRPEIPEGVVSQCMLQNNNNLEACCRALSQES [F9R], for which the abundance fitness is -0.751 ± 0.057.
Turning to VLHDLRQRIPEIPEGVVSQCMLQNNNNLEACCRALSQES [F9I], the abundance fitness is -0.784 ± 0.33.
In the case of VLHDLRQRKPEIPEGVVSQCMLQNNNNLEACCRALSQES [F9K], the abundance fitness is -0.544 ± 0.13.
For the variant VLHDLVQRFPEIPEGVVSQCMLQNNNNLEACCRALSQES [R6V], the abundance fitness was -0.211 ± 0.049.
As for VLHDLWQRFPEIPEGVVSQCMLQNNNNLEACCRALSQES [R6W], the abundance fitness is -0.809 ± 0.14.
